The data set concerns the molecule itself.

For the protein IRIDIRIDIRG [Peptide IRIDIRIDIRG (SID)], the binding result was “binds”.

These data come from article doi:10.1101/2024.11.05.622117 (bioRxiv, 2024).
